Substitutions are numbered along the chain they refer to. Names may count otherwise.
T1: EsCas13d, nuclease-dead (Eubacterium siraeum, UniProt B0MS50, R295A;H300A;R849A;H854A)
T1 sequence: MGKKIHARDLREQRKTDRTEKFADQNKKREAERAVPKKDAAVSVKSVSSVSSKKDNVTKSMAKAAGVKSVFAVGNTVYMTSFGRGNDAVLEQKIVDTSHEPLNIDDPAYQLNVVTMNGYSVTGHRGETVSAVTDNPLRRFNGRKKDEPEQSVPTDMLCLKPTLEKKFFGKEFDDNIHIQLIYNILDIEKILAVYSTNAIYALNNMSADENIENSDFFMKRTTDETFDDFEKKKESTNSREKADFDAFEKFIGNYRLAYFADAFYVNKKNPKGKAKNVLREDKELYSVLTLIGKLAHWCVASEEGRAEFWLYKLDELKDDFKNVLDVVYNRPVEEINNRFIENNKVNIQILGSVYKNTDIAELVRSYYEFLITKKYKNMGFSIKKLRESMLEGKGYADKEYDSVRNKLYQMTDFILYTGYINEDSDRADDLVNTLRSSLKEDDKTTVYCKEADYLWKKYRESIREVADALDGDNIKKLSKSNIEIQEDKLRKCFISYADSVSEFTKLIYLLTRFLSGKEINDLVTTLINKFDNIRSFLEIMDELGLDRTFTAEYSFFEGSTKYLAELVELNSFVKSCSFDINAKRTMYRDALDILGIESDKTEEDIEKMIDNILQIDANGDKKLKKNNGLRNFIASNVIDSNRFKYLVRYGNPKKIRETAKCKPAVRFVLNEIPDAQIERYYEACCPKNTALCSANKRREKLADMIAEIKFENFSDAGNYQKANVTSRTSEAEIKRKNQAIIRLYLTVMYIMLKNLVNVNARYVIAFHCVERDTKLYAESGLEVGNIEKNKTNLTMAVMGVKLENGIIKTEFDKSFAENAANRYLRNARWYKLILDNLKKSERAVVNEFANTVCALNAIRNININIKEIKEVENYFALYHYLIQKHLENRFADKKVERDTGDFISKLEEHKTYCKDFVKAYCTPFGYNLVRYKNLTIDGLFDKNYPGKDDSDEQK

B1: target 1 MT 5'PFS GUC 3'PFS ACA (mixed)
RNA 1: CACCCGUGCAAAAAUGCAGGGGUCUAAAACUGAGCGGAUAACCUCUCUAUGG
RNA 2: GGGAAUGGAUCCACAUCUACGAAUUCGUCCCAUAGAGAGGUUAUCCGCUCAACAAGAUCGGAAGAGCACACGU
B2: target 1 MT 5'PFS GUC 3'PFS UAG (mixed)
RNA 1: B1 RNA 1
RNA 2: B1 RNA 2 with A52U, C53A, A54G
B3: target 1 A9U,U19A (mixed)
RNA 1: B1 RNA 1
RNA 2: B1 RNA 2 with C29A, U33A, A43U, A52C, A54G
B4: target 1 MT 5'PFS GUC 3'PFS UAA (mixed)
RNA 1: B1 RNA 1
RNA 2: B1 RNA 2 with A52U, C53A
B5: target 1 MT 5'PFS GUC 3'PFS UAC (mixed)
RNA 1: B1 RNA 1
RNA 2: B1 RNA 2 with A52U, C53A, A54C
B6: target 1 MT 5'PFS GUC 3'PFS ACU (mixed)
RNA 1: B1 RNA 1
RNA 2: B1 RNA 2 with A54U
B7: target 1 MT 5'PFS GUG 3'PFS GGA (mixed)
RNA 1: B1 RNA 1
RNA 2: B1 RNA 2 with C29G, A52G, C53G
B8: target 1 MT 5'PFS AAG 3'PFS CUG (mixed)
RNA 1: B1 RNA 1
RNA 2: B1 RNA 2 with G27A, U28A, C29G, A52C, C53U, A54G
B9: target 1 MT 5'PFS AAG 3'PFS CUC (mixed)
RNA 1: B1 RNA 1
RNA 2: B1 RNA 2 with G27A, U28A, C29G, A52C, C53U, A54C
B10: target 1 MT 5'PFS CCG 3'PFS AUC (mixed)
RNA 1: B1 RNA 1
RNA 2: B1 RNA 2 with G27C, U28C, C29G, C53U, A54C
B11: target 1 MT 5'PFS CCA 3'PFS AAU (mixed)
RNA 1: B1 RNA 1
RNA 2: B1 RNA 2 with G27C, U28C, C29A, C53A, A54U
B12: target 1 MT 5'PFS AUA 3'PFS CGG (mixed)
RNA 1: B1 RNA 1
RNA 2: B1 RNA 2 with G27A, C29A, A52C, C53G, A54G
B13: target 1 MT 5'PFS AUA 3'PFS AGG (mixed)
RNA 1: B1 RNA 1
RNA 2: B1 RNA 2 with G27A, C29A, C53G, A54G
B14: target 1 insU 3' of 15,insG 3' of 6 (mixed)
RNA 1: B1 RNA 1
RNA 2: GGGAAUGGAUCCACAUCUACGAAUUCGUACCAUAGAGUAGGUUAUCCGGCUCACCGAGAUCGGAAGAGCACACGU
B15: target 1 A14C,A16G (mixed)
RNA 1: B1 RNA 1
RNA 2: B1 RNA 2 with C29A, A36G, A38C, A52C, A54G
B16: target 1 MT 5'PFS AGC 3'PFS UAG (mixed)
RNA 1: B1 RNA 1
RNA 2: B1 RNA 2 with G27A, U28G, A52U, C53A, A54G
B17: target 1 MT 5'PFS GCC 3'PFS ACU (mixed)
RNA 1: B1 RNA 1
RNA 2: B1 RNA 2 with U28C, A54U
B18: target 1 MT 5'PFS GGC 3'PFS CUU (mixed)
RNA 1: B1 RNA 1
RNA 2: B1 RNA 2 with U28G, A52C, C53U, A54U
B19: target 1 MT 5'PFS ACC 3'PFS CUC (mixed)
RNA 1: B1 RNA 1
RNA 2: B1 RNA 2 with G27A, U28C, A52C, C53U, A54C
B20: target 1 MT 5'PFS GGC 3'PFS CUC (mixed)
RNA 1: B1 RNA 1
RNA 2: B1 RNA 2 with U28G, A52C, C53U, A54C
B21: target 1 MT 5'PFS GCC 3'PFS ACA (mixed)
RNA 1: B1 RNA 1
RNA 2: B1 RNA 2 with U28C
B22: target 1 MT 5'PFS GGC 3'PFS CUA (mixed)
RNA 1: B1 RNA 1
RNA 2: B1 RNA 2 with U28G, A52C, C53U
B23: target 1 MT 5'PFS GGC 3'PFS CUG (mixed)
RNA 1: B1 RNA 1
RNA 2: B1 RNA 2 with U28G, A52C, C53U, A54G
B24: target 1 MT 5'PFS GCC 3'PFS ACG (mixed)
RNA 1: B1 RNA 1
RNA 2: B1 RNA 2 with U28C, A54G
B25: target 1 MT 5'PFS UAG 3'PFS AGU (mixed)
RNA 1: B1 RNA 1
RNA 2: B1 RNA 2 with G27U, U28A, C29G, C53G, A54U
B26: target 1 insU 3' of 7,insA 3' of 3 (mixed)
RNA 1: B1 RNA 1
RNA 2: GGGAAUGGAUCCACAUCUACGAAUUCGUACCAUAGAGAGGUUAUCUCGCUACACCGAGAUCGGAAGAGCACACGU
B27: target 1 MT 5'PFS UAU 3'PFS ACU (mixed)
RNA 1: B1 RNA 1
RNA 2: B1 RNA 2 with G27U, U28A, C29U, A54U
B28: target 1 MT 5'PFS GCC 3'PFS CAU (mixed)
RNA 1: B1 RNA 1
RNA 2: B1 RNA 2 with U28C, A52C, C53A, A54U
B29: target 1 MT 5'PFS UAG 3'PFS AGA (mixed)
RNA 1: B1 RNA 1
RNA 2: B1 RNA 2 with G27U, U28A, C29G, C53G
B30: target 1 MT 5'PFS AGU 3'PFS UUG (mixed)
RNA 1: B1 RNA 1
RNA 2: B1 RNA 2 with G27A, U28G, C29U, A52U, C53U, A54G
B31: target 1 MT 5'PFS GCC 3'PFS CAC (mixed)
RNA 1: B1 RNA 1
RNA 2: B1 RNA 2 with U28C, A52C, C53A, A54C
B32: target 1 MT 5'PFS UAU 3'PFS ACC (mixed)
RNA 1: B1 RNA 1
RNA 2: B1 RNA 2 with G27U, U28A, C29U, A54C
B33: target 1 MT 5'PFS UAU 3'PFS ACA (mixed)
RNA 1: B1 RNA 1
RNA 2: B1 RNA 2 with G27U, U28A, C29U
B34: target 1 MT 5'PFS GGG 3'PFS CCG (mixed)
RNA 1: B1 RNA 1
RNA 2: B1 RNA 2 with U28G, C29G, A52C, A54G
B35: target 1 MT 5'PFS GGG 3'PFS CCC (mixed)
RNA 1: B1 RNA 1
RNA 2: B1 RNA 2 with U28G, C29G, A52C, A54C
B36: target 1 MT 5'PFS GCU 3'PFS AAU (mixed)
RNA 1: B1 RNA 1
RNA 2: B1 RNA 2 with U28C, C29U, C53A, A54U
B37: target 1 A9G,U10G (mixed)
RNA 1: B1 RNA 1
RNA 2: B1 RNA 2 with C29A, U42G, A43G, A52C, A54G
B38: target 1 MT 5'PFS GCU 3'PFS AAC (mixed)
RNA 1: B1 RNA 1
RNA 2: B1 RNA 2 with U28C, C29U, C53A, A54C
B39: target 1 MT 5'PFS GGG 3'PFS CCU (mixed)
RNA 1: B1 RNA 1
RNA 2: B1 RNA 2 with U28G, C29G, A52C, A54U
B40: target 1 MT 5'PFS GCU 3'PFS UGA (mixed)
RNA 1: B1 RNA 1
RNA 2: B1 RNA 2 with U28C, C29U, A52U, C53G

These binders were tested against T1, EsCas13d, nuclease-dead (assay: crRNA (strand 1, pre-loaded); Mg2+; 40 mM Tris-HCl pH 7.5, 150 mM NaCl, 6 mM MgCl2, 1 mM DTT, 0.1% Tween-20, 0.2 mg/ml BSA; 25 C; 10 min per concentration, then washed). Conditions: tags: His6-TwinStrep-SUMO cleaved; N-terminal SNAP kept (SNAP-Surface 488); label: 3' end held by stalled T7 RNA polymerase.

| Binder | Kd [nM] |
| --- | --- |
| B1 | ~56 |
| B2 | 17.6 ± 3.35 |
| B3 | 52 ± 10 |
| B4 | 16 ± 4.3 |
| B5 | 15.1 ± 3.8 |
| B6 | 16.9 ± 2.05 |
| B7 | 20.3 ± 2.5 |
| B8 | 16 ± 5 |
| B9 | 38.5 ± 13.5 |
| B10 | ~8.65 |
| B11 | 7.3 ± 2.35 |
| B12 | 27 ± 6.5 |
| B13 | ~90 |
| B14 | 14.9 ± 0.8 |
| B15 | ~90 |
| B16 | 17 ± 6.5 |
| B17 | 11.2 ± 2.05 |
| B18 | 11.3 ± 2.25 |
| B19 | ~12 |
| B20 | 17.1 ± 7.05 |

| Binder | Kd [nM] |
| --- | --- |
| B21 | ~64 |
| B22 | 15.2 ± 4.25 |
| B23 | 17.3 ± 4 |
| B24 | 13.9 ± 3.7 |
| B25 | 56.5 ± 16 |
| B26 | 20.4 ± 1.3 |
| B27 | 29 ± 5 |
| B28 | ~12 |
| B29 | 30 ± 5.5 |
| B30 | 47 ± 17 |
| B31 | ~34 |
| B32 | 36 ± 15 |
| B33 | 54 ± 20.5 |
| B34 | 15.1 ± 3.45 |
| B35 | ~50 |
| B36 | ~82.5 |
| B37 | 37 ± 4 |
| B38 | ~80 |
| B39 | 18.5 ± 7 |
| B40 | 100 ± 40 |

— article PMC10786891, “Massively parallel profiling of RNA-targeting CRISPR-Cas13d”
